Source: the DeepSol protein solubility set

Assay: soluble on expression in E. coli; label from the status in PepcDB or PDB records

Soluble on expression in E. coli, soluble:
SADSKEGVLPLTAASTAPISFGFTRTSARRRLADSGDGAGPSPEEKDFLKTVEGRELQSVKPQEAPKELVIPLIQNGHRRQPPARPPGPSTDTGALADGVVSQAVKELIAESKKSLEERENAGVDPTLAIPMIQKGCTPSGEGADSEPRAETVPEEANYEAVPVEAYGLAMLRGMGWKPGEGIGRTFNQVVKPRVNSLRPKGLGLGANLTEAQALTPTGPSRMPRPDEEQEKDKEDQPQGLVPGGAVVVLSGPHRGLYGKVEGLDPDNVRAMVRLAVGSRVVTVSEYYLRPVSQQEFDKNTLDLRQQNGTASSRKTLWNQELYIQQDNSERKRKHLPDRQDGPAAKSEKAAPRSQHWLHRDLRVRFVDNMYKGGQYYNTKMIIEDVLSPDTCVCRTDEGRVLEGLREDMLETLVPKAEGDRVMVVLGPQTGRVGHLLSRDRARSRALVQLPRENQVVELHYDAICQYMGPSDTDDD
SLYCIEEKIEKALGIKEASLVLKNCNIVNVFSSEIIRGDLAIDGDTIIGIGKYKGKTEIDLSNKYVAPGFIDSHVHIESSMVSPKEFARAVISRGTTTIIVDPHEIANVCGMDGIKYMMEETKNMPLDVFFMLSSCVPATSFETSGAVLKAEDLKELIDSDRVLGLGEMMNYPGVLSREEEVLNKLKLAGSYNKIVDGHAPSVRGNELNAYNLAGIKTDHECSSIEEMNEKIRNGMYIAIREGSAAKNLDILIKGVNAKNERRIMFCADDRHPDDILKSGHMDNCVRRAIYNGIENTAAIRMASINAAECYKLERVGAIAPSYKADLVVLEDLKDVKVNMVIKSGEVVFKDNKHLKDMGSKSDITKVSNTVNIKKVSEENLELKLDTDVCSIISVALNSISTKNVKRKVNLSNGIFKCELNYGINKVAVIERHKKSGSIGIGLVENFGLKRGAIASTVAHDSHNIIVLGNNDEDMVKAVNEIERVGGGITISLDGKIIETLELEIAGLMSNKSMEFVAERVSKMINICHNTLGVNKDIQPFMTLAFLALPVIPEIRITDKGVFDVVNFKFL
GHLDDNVTQEDIQAMLQEGSSAGVIEHNEHAMVKNVFRLDERTISSLMVPRSDIVFLDLNLPLDANLRTVMQSPHSRFPVCRNNVDDMVGIISAKQLLSESIAGERLELVDLVKNCNFVPNSLSGMELLEHFRTTGSQMVFVVDEYGDLKGLVTLQDMMDALTGEFFQEDGS
MGHHHHHHSHRNRARFAARKQLVLNLVSSPGSGKTTLLTETLMRLKDSVPCAVIEGDQQTVNDAARIRATGTPAIQVNTGKGCHLDAQMIADAAPRLPLDDNGILFIENVGNLVCPASFDLGEKHKVAVLSVTEGEDK
MSLRLGIILHGVTGRMGYNQHLVRSVLAIRDQGGIMLKSGGRLEIDPIIVGRNRDKIEQLAKRHDIARWSTDLDAALADPNDQIFFDAGTTLMRAELIGRALDAGKHVYCEKPVSDDLRTAVKLARKARASGLKHGVVQDKLFLPGLQKLALLRDSGFFGKILSVRGEFGYWVFEGDWGVPAQRPSWNYRKKDGGGIILDMLCHWRYVLDNLFGEVKAVSCLGATHISSRIDEQGRAYDCDTDDAAYATFELEGGVIAQINSSWTVRVRRDDLVTFQVDGTHGSAVAGLTKCWTQHRVNTPKPVWNPDQPQTIDFYETWDEVPDTQAFDNGFKAQWEMFLRHVAEDSPWPYGLEAGAKGVQLAELGLKSWAERRWLDVPELEEGHHHHHH
MSTAEQRMDTSEVELPNDNVNEQGNKTPRADQPESSASGARNHGEDEEVTEQVELAAMETEASDSIVDNVPKTPRRAGRPKKLPSTSTAAAESAVTPGKRGRKRKGSESVNTTINSTMNSTLNEPKTPGRKQAKLVAPLLTYDLFAPSIIGDRVLSCGEGEALGHPGRTTTKKPRKVDIFEEEGLKPLQAVAGGVHSAVLTSEGEVYMCGINEKGTVPAEGVEKEGSTDEFAKVKFEEDIEKEGKIVMLAAGASFTAALTDQGSVIAWGNLRNSNGNVDVHPLLHKMQEAPVVIVHQAKRKIVKIAAGENHLVMLDEKGCLLTFGDGEMGQLGRSSRTKTIRSKYMCDESGDHLLVPLRFKHKGKFFDVVAKNVFASGFWTIVHGEDGKYYAFGLNNYAQLGIKVDEADVGQDGQDNRELRVFLPAEAPAFGAERTFVNIEGVQHVVILGSDGKVFAMGKNTDNALGLGNWTGKDDQQHWLYDTIQEIEFDSKIVGVSAKLATSIAWSEDGTAYAWGFDTTGQLGLGLKDEDEKMVSKPEEISSAHLDGYSIIGASISDQHTLIIAKKN
MHAPLVSKDLDYISTANHDQPPRHLGSRFSAEGEFLPEPGNTVVCHLVEGSQTESAIVSTRQRFLDMPEASQLAFTPVSSLHMTVFQGVIESRRALPYWPQTLPLDTPIDAVTDYYRDRLSTFPTLPAFNMRVTGLRPVGMVMKGATAEDDSIVALWRDTFADFFGYRHPDHDTYEFHITLSYIVSWFEPECLPRWQAMLDEELEKLRVAAPVIQMRPPAFCEFKDMNHFKELVVFDKR
MKVNKFITIYKDIAQQIEGGRWKAEEILPSEHELTAQYGTSRETVRKALHMLAQNGYIQKIRGKGSVVLNREKMQFPVSGLVSFKELAQTLGKETKTTVHKFGLEPPSELIQKQLRANLDDDIWEVIRSRKIDGEHVILDKDYFFRKHVPHLTKEICENSIYEYIEGELGLSISYAQKEIVAEPCTDEDRELLDLRGYDHMVVVRNYVFLEDTSLFQYTESRHRLDKFRFVDFARRGK

Soluble on expression in E. coli, not soluble:
MKTNTIITIGRQFGSAGREIGYQIADYFGIKLYDKEMLSRAAKESGICEEIFETHDEKPTNSFLYSLVMDTYSMGYSGGSYSDMPINHKVFLAQFDAIKKIADEGPCILVGRCADYALESYDNVVNVFIHADLDARIRRIARIYNLTDAKAKDMIIKTDKKRASYYNYYTNKKWSDSESYELCLSSSELGIEGTAKAIEQYVMLKEQIQRDDKIL
MFISVLDLFKIGIGPSSSHTMGPMTAANVFRDHVDQLVSQTPDDLNYRVYCVLKGSLAFTGRGHATDRAVALGLHGHSPVSLAGEDVNALTAKLWATDTLQLTSGREIGFNPEDDIVFDKSDPLPQHPNGMIFYLLDEEGKKILSETFFSIGGGFICTLAEINQ
EKKRIESLINNMYDPVIGLDENLKILFVNEQAIKIIGISQEELIGHYTQELAIKNDLVRTLVQDLMVAENTPSNKAIPIKIYSNNKEGYFEKEILHISVTPTGEQVKQLIGHVIILRNIT
MMSVEHSANSQKKVIVGMSGGVDSSVSAYLLKQQGYQVEGLFMKNWEEDDNEEYCTAAEDLADAQAVCDKLGIPLHTINFAAEYWDNVFEYFLAEYKAGRTPNPDILCNKEIKFKAFLEFADEVLDADYIAMGHYVRRTFPQNGEKPQMLRGLDGNKDQSYFLYTLSHEQVARTLFPVGELEKPEVRRIAEEQGLITAKKKDSTGICFIGERKFTDFLSRYLPAQPGKIETPEGKVIGEHQGLMYHTLGQRKGLHIGGMKESSEQPWYVADKDLKRNVLIAVQGADHPLLKSHGLVAAQLHWVDRTPITEPVRCSVKTRYRQSDIACTIIPLSDDRIKVMFDEPQVAVTPGQSAVFYQGEICLGGGIIEERI
MRPMTIDIDELAFALDTPGIDHYLDLYSGKVLLISAEAPDPELDALLENEPERLLLIDPLSTTQSLGLMQDFLREVEEPHAYATLANALQSRKPFKAFKHSLMEYPELLQDWYRYQNERLREWALDWLEDNDIQPAARQSPTSLLPPPGKPFA
MGSDKIHHHHHHMSDLITLAQLSQGYRYNSDSLILADFILKQGIKGAVFDVGAGCGIIGILLKKNIANLSLSLIDIQKENIELIEKNLKSNKIQGDIFHDDFNQFQIIKKFDFIVCNPPFYRQGAYKSEDQHKAISKFQEFLPLHSFLAKTNSMLKPNGTLYFCYEALALDEICFILKDMKMKITKLCFVHTHQSKKARLVLIQVKKGSKSPCEILPPFFVYENEILSKQMQEIHLRFRLKSYDI
SLHSMTAFAADEHLTPWGLLACELRSVNHRFLDIVIRLPEELRALESQLRERVAARVSRGKLDLTVRLSPQEIHTGKLVVNELLLSHLSTLALRLSAQFPALRVTFAELLQIPGVLKGEQIDMTTLQGHAVALLDKVLDNFIATREREGLKMQAMIAQRASAIERIVGEVRTLIPTIREGQHNKLNARMNHLSYPVDHGRIEQELVLWLQ
MTPLERYQADLQRPDFFHDAAQANAVKHLQRLYDDLVAADHAKPGLFGKLLGRKSGGPVKGLYFWGGVGRGKTYLVDTFFESLPFEQKVRTHFHRFMKRVHEELKTLKGEKNPLTIIGKRFADEARVICFDEFFVSDITDAMILATLLEELFKNGVSLVATSNIVPDGLYKDGLQRARFLPAIALLKEHTEIVNVDSGVDYRLRALEQAELFHWPLSEQVEEEMARSFKALTPDCAKAQRDEALMIENREIRARLTCDDVAWFEFRELCDGPRSQNDYIELAKIFHAVLISNVEQMGVTKDDMARRFINLVDEFYDRSVKLIISAEVELKDLYSGGRLEFEFQRTLSRLLEMQSHEYLTRPHRPAAALEHHHHHH
MINIETPTYYTATKKYELSFPSLETDLDADVVVIGGGFSGINTALELAEHGITDIVVLEARHLGFGGTGRNGGQIMAGIGHDLEKIRKDVGEDGLRAIFEISDLGADIIKGRIEKYAIDADFCHGYGYMGFNARQAKTLQAWEKEFRSLGSPHEIRYLHGAEVRQIIGSDAYGSALLHMGGGHVHSLNLLLGEAKALAGLGARIFEYSPALEVQYGERIRVRTAKGSVTANKLLWACDSFLNRLEPELHRTTINTYAFQMMTEPLPDELIQRISPIRGAYSDIRPVIDYYRVTNENRLLFGAATPFVERIPGDLKAWNRKLMLKIFPYLEHVRIDLAWGGPMACSANLFPQIGSLSGRPNAFFVQGYSGFGVTPSHIVCKVLAEGMSEGSARYDLLSSVRRIPIHGKDHFRPLLLSAGKTWHQLSGYWNGRR
MNPGGILMTTDIYFSHNNPHDPYAHHTTELNRDTHHLWVVLTTDSDDFDADSFTTEVIRITGYSRHEVNNGLNAMAAMTNLPHLRAIQERYYFLSIRYLASIMIAVAKADPTLWEELDLRITDALTPVTAGEVMIQSSTLSKRIAAWIKELDPEPTPEPIPKEDYVHVHTTDEATYVRIKISGPNRLILNDIITQLKDTDTEDSLPEALMAFLMEKIQLKITKYLFTPHKHPEQVWSPDYGDIGPEAYANATLVCAKDLDEVAGATEKSYTPSEKMKALIRARDGHCRFPGCCVPASKCQVDHIIPWAEGGPTAAWNLQLLCQRHHNMKTDGRFTADANGLAEIRWIGPMDVPAVTRPTGPLVKAMPRGIWGQVLRDRIQARFERIRVRALNKEDLEHHHHHH
MSELTQLAQQEKKQTYNFNKLQKRLRRNVGNAIADFGMIEDGDKVMVCLSGGKDSYTLLDILLNLQQSAPIKFDIVAVNLDQKQPGFPEHVLPEYLESIGVDYKIVQENTYGIVKEKIPEGKTTCSLCSRLRRGILYRTATELGATKIALGHHRDDMLATLFLNMFYGGKIKSMPPKLISDDGKQIVIRPLAYCKEKDIEKYAIAKEFPIIPCNLCGSQPNLQRQVVKEMLNTWDRQYPGRLETMFSAMQNITLSHMCDPKLFDFKGIKHGQLIDGIEGDTAFDEERITPMQFEDEDQTDFSNKEMINFKEVN
MKKLLFFILILFGVLSVQSLANGCSAQICTCPGGGYVTTGQYCPVYNNNTPSQPVLTKWYAFSYDKNKNIYGVGTGYDKKTAQNEALKNCGTSECKIEKSQKIPGGISLAAVSSNGVMVTYSSFGSSTWEQYEKRIDNLIKKCKAKGGSNCKLVFDSAYLYRKDKNLGY
